Values quoted from earlier work, collected in US20150290107A1, “COMPOSITIONS FOR TREATMENT OF XEROSTOMIA AND FOR TOOTH TREATMENT” (3 IN 1 DENTAL PLLC, priority 2013, published 2015).

Test system: lean meat
Details: usual grade

B1: Papain (protein, UniProt P00784 134-345, looked up)
Papain: IPEYVDWRQKGAVTPVKNQGSCGSCWAFSAVVTIEGIIKIRTGNLNEYSEQELLDCDRRSYGCNGGYPWSALQLVAQYGIHYRNTYPYEGVQRYCRSREKGPYAAKTDGVRQVQPYNEGALLYSIANQPVSVVLEAAGKDFQLYRGGIFVGPCGNKVDHAVAAVGYGPNYILIKNSWGTGWGENGYIRIKRGTGNSYGVCGLYTSSFYPVKN
notes: Protease enzyme; white or grayish-white, slightly hygroscopic powder
potency: digesting times its weight of lean meat: ~35 times its weight
